Here are results for one molecule from patent publication US7994133B2, “Isozyme-specific antagonists of protein kinase C” (The Board of Trustees of the Leland Stanford Junior …, priority 2003, dated 2011).

What all share (type): cell-based
Test [1] has as its system CHO cells. Nature of the test: Real-time confocal imaging of PMA-induced εPKC translocation with mathematical modeling. Here is the method: CHO cells were grown on glass coverslips, and serum-starved as described in Example 4. For each experiment, cells were transferred to a commercially available metal coverslip holder (Molecular Probes) in which the coverslip formed the bottom of a 1 ml bath. The media was then replaced with extracellular buffer (120 mM NaCl, 5 mM KCl, 1.5 mM CaCl2, 1.5 mM MgCl2, 20 mM HEPES and 30 mM glucose). Cells were stimulated by either PMA (100 nM), or with ATP (1 mM) in extracellular buffer. Fluorescence images of GFP-tagged constructs were obtained using the 488 nm excitation line of a laser scanning confocal microscope (Pascal, Zeiss) and emission was collected through a 505-550 nm band pass filter. Cells were imaged on the stage of an inverted microscope (Axiovert 100M) using a 40× Zeiss Plan-apo oil immersion objective with 1.2 numerical aperture (NA). For dual color imaging of CFP and YFP fusion proteins, a spinning disk Nipkow confocal microscope was used. Cells were viewed using an inverted Olympus IX70 microscope with a 40× oil immersion Olympus objective (1.35NA) and images were acquired with a CCD camera (Hamamatsu) and 2×2 pixel binning. CFP was excited with the 442 nm laser line of a helium-cadmium laser (Kimmon) whereas YFP was imaged with the 514 nm line of an argon ion laser (Melles-Griot). To selectively photobleach YFP labeled proteins in local regions of the cytoplasm for FRAP experiments, the 514 nm line of an Enterprise laser (Coherent) at maximal power (˜400 mW) was used. For these experiments, a 60× oil immersion objective was used (1.4NA). Under these conditions, and by placing an iris in the beam path, it was possible to bleach 80% of the YFP fluorescence in 500 ms in an area of the cytosol measuring approximately 35 um2. Real time confocal images were acquired every 10-15 seconds for 20 minutes for experiments utilizing PMA, and every 5 seconds for a total duration of 3 minutes in the case of cells stimulated with ATP. Reagents were added to the cell chamber after the fifth image in each time series. […] All images were acquired at room temperature. Images were exported as 12 or 16 bit files and changes in fluorescence intensity were measured using MetaMorph® data analysis software (Universal Imaging Corp.). To monitor the translocation of PKC, a small region of interest was selected in the cytosol of each cell and fluorescence intensity values graphed against time after subtraction of background values and normalized so that the initial fluorescence was 100%. Averages of 10-15 cells from three independent experiments were used. To determine statistical significance, a 1 tail type 2 T-test (Microsoft excel) was used.
Mathematical modeling was obtained from data of cells expressing similar levels of the different εPKC ΨεRACK mutants. Non-linear least squares curve fitting analysis was performed using the EViews software (QMS) and differential equation analysis was performed using Berkeley Madonna™. All other methods for this Example were performed as described, for example, in Examples 4 and 6.
Fluorescence time courses were analyzed by a non-linear regression analysis with single and biexponential equations (1 and 2) as previously done by Nalefski and Newton Nalefski, E. A. & Newton, A. C., Biochemistry 40:13216-13229 (2001)], where I(t) is the concentration of observed molecules in the cytosol at time (t), and C1-5 are constants. I(t)=C1+C2e^(−C3(t)) 1. I(t)=C1+C2e^(−C3(t))+C4e^(−C5(t)) 2. Residual error graphs obtained using single exponential equations (FIG. 8A) and using biexponential equations (FIG. 8B) for the D(86)A εPKC mutant translocation process is shown in FIGS. 8A-8D. […] This process can be described as follows:
The value of C1 corresponds to the level of εPKC in the cytosol at steady state. It was next determined whether the hypothesis that the values obtained for C1 and C3 of D(86)A and Wt εPKCs are statistically equivalent. […]

The subject of test [2] is CHO and MCF-7 cells. Nature of the test: PKC translocation by Western blot, soluble to particulate fraction, after PMA. Particulars: 10 minutes PMA, 100 nM in CHO, 10 nM in MCF-7. The method, then: To assess PKC distribution the different cell fractions were run on SDS PAGE, transferred for Western blot analysis and probed with anti-εPKC V5 antibodies. Lysates of overexpressed GFP-εPKC were diluted to approximately 0.2 μg/well. At this concentration endogenous εPKC was not detected. All other methods for this Example were performed as described, for example, in Example 4. It was also confirmed that the Wt and ΨεRACK εPKC mutants were sensitive to activation by phorbol ester and that they translocated from the soluble to the particulate fraction of the cell upon activation. Translocation of the εPKC mutants was determined using two different cell lines, MCF-7 and CHO. [CHO cells were stimulated for 10 minutes with 100 nM PMA (FIG. 6C). MCF-7 cells were stimulated with 10 nM PMA for 10 minutes (FIG. 6D, 6E), since stimulation of MCF-7 cells with higher doses of PMA caused a detachment of the cells]. After treatment with PMA, cells were fractionated into soluble and particulate fractions, and GFP-εPKC was detected and quantified by Western blot analysis using anti-εPKC. […] This is not due to PKC degradation; the total amount of εPKC was not changed upon activation. Therefore, GFP-εPKC ΨεRACK mutants were catalytically active and responded to activation by PMA by translocating from the soluble to the particulate fraction of the cell.
For orientation: In western blotting, separated proteins are transferred to a membrane and probed.

Test [3] is described as follows: Fluorescence recovery after photobleaching (FRAP) of cytoplasmic εPKCs. The following applies: average of at least 10 cells. The method, then: CHO cells were grown on glass coverslips, and serum-starved as described in Example 4. For each experiment, cells were transferred to a commercially available metal coverslip holder (Molecular Probes) in which the coverslip formed the bottom of a 1 ml bath. The media was then replaced with extracellular buffer (120 mM NaCl, 5 mM KCl, 1.5 mM CaCl2, 1.5 mM MgCl2, 20 mM HEPES and 30 mM glucose). Cells were stimulated by either PMA (100 nM), or with ATP (1 mM) in extracellular buffer. Fluorescence images of GFP-tagged constructs were obtained using the 488 nm excitation line of a laser scanning confocal microscope (Pascal, Zeiss) and emission was collected through a 505-550 nm band pass filter. Cells were imaged on the stage of an inverted microscope (Axiovert 100M) using a 40× Zeiss Plan-apo oil immersion objective with 1.2 numerical aperture (NA). For dual color imaging of CFP and YFP fusion proteins, a spinning disk Nipkow confocal microscope was used. Cells were viewed using an inverted Olympus IX70 microscope with a 40× oil immersion Olympus objective (1.35NA) and images were acquired with a CCD camera (Hamamatsu) and 2×2 pixel binning. […] Under these conditions, and by placing an iris in the beam path, it was possible to bleach 80% of the YFP fluorescence in 500 ms in an area of the cytosol measuring approximately 35 um2. […] Images were exported as 12 or 16 bit files and changes in fluorescence intensity were measured using MetaMorph® data analysis software (Universal Imaging Corp.). To monitor the translocation of PKC, a small region of interest was selected in the cytosol of each cell and fluorescence intensity values graphed against time after subtraction of background values and normalized so that the initial fluorescence was 100%. […]
Different translocation rates may reflect differences in overall mobility (diffusion) of the εPKCs in cells. Therefore, fluorescence recovery after photobleaching (FRAP) of the cytoplasmic enzyme was measured; mobility of εPKCs was measured by monitoring the time required for the fluorescence to recover in a bleached region. […]

Setting [4] is: constant of bi-exponential fit, 100 nM PMA.

B1: D(86)A: εPKC mutant wherein D at position 86 of ΨεRACK on εPKC is substituted with an A (protein)
chain: MVVFNGLLKIKICEAVSLKPTAWSLRHAVGPRPATFLLDPYIALNVDDSRIGQTATKQKTNSPAWHDEFVTDVCNGRKIELAVFHAAPIGYDDFVANCTIQFEELLQNGSRHFEDWIDLEPEGRVYVIIDLSGSSGEAPKDNEERVFRERMRPRKRQGAVRRRVHQVNGHKFMATYLRQPTYCSHCRDFIWGVIGKQGYQCQVCTCVVHKRCHELIITKCAGLKKQETPDQVGSQRFSVNMPHKFGIHNYKVPTFCDHCGSLLWGLLRQGLQCKVCKMNVHRRCETNVAPNCGVDARGIAKVLADLGVTPDKITNSGQRRKKLIAGAESPQPASGGSPSEEDRSKSAPTSPCDQEIKELENNIRKALSFDNRGEEHRAASSPDGQLMSPGENGEVRQGQAKRLGLDEFNFIKVLGKGSFGKVMLAELKGKDEVYAVKVLKKDVILQDDDVDCTMTEKRILALARKHPYLTQLYCCFQTKDRLFFVMEYVNGGDLMFQIQRSRKFDEPRSRFYAAEVTSALMFLHQHGVIYRDLKLDNILLDAEGHCKLADFGMCKEGILNGVTTTTFCGTPDYIAPEILQELEYGPSVDWWALGVLMYEMMAGQPPFEADNEDDLFESILHDDVLYPVWLSKEAVSILKAFMTKNPHKRLGCVASQNGEDAIKQHPFFKEIDWVLLEQKKIKPPFKPRIKTKRDVNNFDQDFTREEPVLTLVDEAIVKQINQEEFKGFSYFGEDLMP
With B1, in test [1] (100 nM PMA, GFP fusion), the “rate of translocation (decrease of fluorescence in the cytoplasm)” value is recorded as “faster rate” and the “time at which translocation to the cell periphery became apparent” value is on record as “within one minute”. Moreover, the “time after PMA stimulation at which the enzyme was found at the cell periphery” value in test [1] (YFP-εPKC D(86)A and CFP-εPKC Wt co-transfected in the same cell, 100 nM PMA) came out at 1.5 min. In test [1] (calculated with k-1 negligible), the “(k2 + k − 2) = C3” value is 0.016 ± 0.001 and the “k − 2/(k2 + k − 2) = C1/100” value was 0.306 ± 0.002. In test [1] (setting [4]), this molecule yielded a C3 of 0.016 ± 0.001 and a C5 of 0.040 ± 0.007. The same molecule had a C1 in test [1] (constant of bi-exponential fit, level of εPKC in the cytosol at steady state, 100 nM PMA) of 30.59 ± 0.286. Also, the “k − 1” value in test [1] (rate of closing in the cytosol, assumed negligible) is approximately 0. For the same molecule, in test [1] (rate of detachment from the membrane, calculated with k-1 negligible), the “k − 2” value is 0.005 ± 0.0004. In addition, the k2 in test [1] (rate of εPKC binding to the membrane, calculated with k-1 negligible) is given as 0.011 ± 0.003. For the same molecule, the “k1 = C5” value in test [1] (rate of εPKC opening in the cytosol, calculated with k-1 negligible) was 0.040 ± 0.007. Besides, in test [2], the “increase of εPKC in the particulate fraction compared with D(86)N or Wt” value was “greater increase”. In test [3], the “time to fifty percent FRAP” value came out at 9.2 ± 1.1 s.
